Here are results for ten molecules from PMC9022995, “Sequence and structural variations determining the recruitment of WNK kinases to the KLHL3 E3 ligase” (Biochemical Journal, 2022).

Square brackets hold non-standard residues; d marks the D form. Ends that are not written are not given here. Peptide text beside a SMILES is read from it. Lumio green = fluorophore conjugated via N-terminal linker CCPGCCGGGG; Rhodamine‑110 = fluorophore on the N-terminus; pT = C[C@@H](OP(=O)(O)O)[C@H](N)C(=O)O Some results are limits rather than exact numbers.

What is called Kd is the equilibrium constant for the complex coming apart. A higher Kd goes with lower affinity.

Test [1] has as its target Lumio green-labelled WNK3 degron peptide (…, WNK3 a.a. 537–547) (human). Nature of the test: fluorescence polarisation; 10 nM Lumio green-labelled WNK3 peptide titrated with GST-KLHL3 Kelch domain; 25°C; 50 mM Tris–HCl pH 7.5, 150 mM NaCl, 2 mM DTT; one site specific binding with Hill slope. In general terms: Fluorescence polarisation rises when a labelled molecule tumbles more slowly, as on binding a larger partner.

Test [2] addresses Lumio green-labelled phospho-WNK3 peptide (ECEET(P)EVDQHV, WNK3 a.a. 537–547, Thr541 phosphorylated) (human). Described as above.
The target of test [3] is T1, KLHL3 Kelch domain (GST-KLHL3, a.a. 298–587) (Homo sapiens, UniProt Q9UH77).
T1 construct: using KLHL3 Kelch domain (GST-KLHL3, a.a. 298–587, MRC-PPU plasmid DU44387); host or cells: E. coli BL21
T1 sequence (Q9UH77 298-587): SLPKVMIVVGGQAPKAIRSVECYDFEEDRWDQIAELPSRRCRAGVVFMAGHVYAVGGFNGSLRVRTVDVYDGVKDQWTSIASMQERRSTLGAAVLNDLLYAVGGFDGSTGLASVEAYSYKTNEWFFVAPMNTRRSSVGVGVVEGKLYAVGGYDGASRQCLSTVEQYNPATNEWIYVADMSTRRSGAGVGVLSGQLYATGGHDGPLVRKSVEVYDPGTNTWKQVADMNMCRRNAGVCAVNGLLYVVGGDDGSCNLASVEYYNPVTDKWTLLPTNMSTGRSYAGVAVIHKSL
Nature of the test: Fluorescence polarisation assay for the binding of WNK3 variants. As to conditions: 25°C; for Kd: GST-KLHL3 a.a. 298–587, 50 mM Tris–HCl pH 7.5, 150 mM NaCl, 2 mM DTT, one site specific binding with Hill slope, three technical replicates per point. As for the experimental part: Figure 2. Analysis of the interaction between KLHL3 and WNK3 variants by fluorescence polarisation. Purified GST-KLHL3 a.a. 298–587 was diluted appropriately and mixed at a 1 : 1 volume ratio with 20 nM Lumino-Green-labelled WNK3 peptides to the concentration stated in the Figure, with the peptide concentration consistent at 10 nM. Fluorescence polarisation measurements were recorded and corrected to the fluorescent probe alone. Each data point represents three technical replicates. One site-specific binding with hill slope was assumed and the disassociation constant was obtained. Binding curves, assuming one-site-specific binding, were then generated with Prism6 using milli-polarization (mP) units. TEXT PRINTED IN THE PICTURE: WNK3 [a.a.537-547] […] E541: KD > 50 μM | WNK3 [a.a.537-547] pT541: KD > 50 μM
For fluorescence polarisation measurements of WNK3 variants, the Kelch domain of human KLHL3 (a.a. […]) was cloned into the bacterial expression vector pGEX6P-1 (MRC-PPU plasmid DU44387) and expressed as a GST fusion protein as previously described. Briefly, E. coli BL21 cells were transformed with plasmid DNA and grown at 37°C in LB broth containing 100 µg/ml ampicillin until OD600 reached 0.6. Cells were then cultured at 16°C for a further 16 h in the presence of 50 µM IPTG for protein induction. Harvested cells were lysed by sonication and the lysate clarified by centrifugation. GST fusion protein was affinity purified using 0.5 ml glutathione–sepharose beads and eluted in buffer (50 mM Tris–HCl pH 7.5, 150 mM NaCl, 2 mM DTT) containing 20 mM glutathione.
Fluorescence polarisation measurements were performed at 25°C using KLHL3 Kelch domain (GST-KLHL3, a.a. 298–587, MRC-PPU plasmid DU44387) buffered in 50 mM Tris–HCl pH 7.5, 150 mM NaCl, 2 mM DTT. All peptides (ECEETEVDQHV, WNK3 a.a. 537–547), (ECEET(P)EVDQHV, WNK3 a.a. 537–547, Thr541 is phosphorylated), and (ECEEEEVDQHV, WNK3 a.a. 537–547, Thr541 is mutated to Glu) were conjugated to the Lumio green fluorophore via an N-terminal linker (CCPGCCGGGG) and dialysed into assay buffer before use. Samples were prepared with 10 nM Lumio-green labelled peptide and the indicated concentration of protein in a final volume of 30 µl. Fluorescence polarisation measurements were recorded using a BMG PheraStar plate reader, with an excitation wavelength of 485 nm and an emission wavelength of 538 nm, and measurements were corrected to the fluorescent probe alone. Data analysis and graphing were performed in GraphPad Prism6. One Site Specific binding with Hill Slope was assumed (model Y = Bmax × X^h/KD^h + X^h) and the disassociation constant, and associated standard error was obtained.

For test [4], the system named is WNK3 protein levels in HEK293 cells co-transfected with KLHL3-FLAG. The test is described as follows: KLHL3-mediated degradation of WNK3 on co-transfection, immunoblotting for WNK3 protein levels. Type of test: cell-based. As to conditions: WNK3-HA wild type or mutant with increasing KLHL3-FLAG, 48 h post transfection, immunoblot, three independent experiments, mean ± SEM. The method, then:
Figure 3. T541E substitution in WNK3 affects its KLHL3-targeted degradation in HEK293 cells. (A) WNK3-HA protein levels were investigated in HEK293 cells transfected with either wild type or mutant constructs and increasing concentrations of KLHL3-FLAG. A representative blot is presented. (B) Quantitative results of three independent experiments. Data are mean ± SEM. * P < 0.01, ** P < 0.0005.
HEK293 cells (ATCC® CRL-1573) were grown in Dulbecco's modified Eagle's medium (DMEM) supplemented with 10% fetal bovine serum to 70–80% confluence and transfected using Lipofectamine 2000 (Life Technologies, Inc.) with wild type or mutant WNK3-HA [46] and with different concentrations of KLHL3-FLAG [42]. Forty-eight hours post transfection, cells were lysed and protein concentration was quantified by the BCA protein assay (Pierce). Samples were diluted in Laemmli buffer and subjected to SDS–PAGE. Proteins were transferred to PVDF membranes which were then blocked for 1 h in 10% (w/v) non-fat milk dissolved in TBS- Tween 20 0.1% (TBSt). Antibodies were diluted in 5% (w/v) non-fat milk-TBSt. Incubation with HRP-coupled primary antibodies was performed overnight. Immunoblots were developed using radiographic film.
Lysis buffer: 50 mM Tris–HCl (pH 7.5), 1 mM EGTA, 1 mM EDTA, 50 mM sodium fluoride, 5 mM sodium pyrophosphate, 1 mM sodium orthovanadate, 1% (w/v) IGEPAL CA-630, 270 mM sucrose, 0.1% (v/v) 2-mercaptoethanol, and protease inhibitors (Complete tablets (Roche Applied Science).
On the technique in general: A western blot detects proteins with antibodies after separation by electrophoresis.

The target of test [5] is T2, GST-KLHL3 Kelch domain (a.a. 298–587) (human, UniProt Q9UH77 298-587).
T2 chain: T1 sequence (Q9UH77 298-587)
Nature of the test: FP.

In test [6] the target is T3, KLHL3 Kelch domain (a.a. 298–587) (human, UniProt Q9UH77-1 298-587).
T3 chain: T1 sequence (Q9UH77 298-587)
Nature of the test: FP; 0 mM Cl-.

The target in test [7] is T3, KLHL3 Kelch domain (a.a. 298–587). Nature of the test: FP; 150 mM F-.
The target is the same in test [8]. Nature of the test: FP; 18 mM Cl-.
Test [9] shares this target. The test is described as follows: FP; 37 mM Cl-.
Test [10] has the same target. Nature of the test: FP; 75 mM Cl-.
The target is the same in test [11]. The test is described as follows: FP; 150 mM Cl-.
Test [12] shares this target. The test is described as follows: FP; 2.4 mM Cl-.
Test [13] has the same target. Nature of the test: FP; 4.7 mM Cl-.
Test [14] has the same target. The test is described as follows: FP; 9.5 mM Cl-.
Test [15] deals with T4, KLHL3 Kelch domain (a.a. 298–587) (human, UniProt Q9UH77-1 298-587).
T4 construct: Kelch-like protein 3 (KLHL3), human, Kelch domain, a.a; 298–587; Vector pNIC28-Bsa4; the hexahistidine tag was cleaved with TEV protease; It is not clear whether Addgene #110251 names the vector or the construct; also called KLHL3 (a.a. 298–587); source: E. coli BL21(DE3)-pRARE, purified (nickel-sepharose, SEC, TEV cleavage); not shown: His6, N-terminal, cleaved
T4 sequence (looked up): T1 sequence (Q9UH77 298-587)
Nature of the test: fluorescence polarisation; 10 nM Rhodamine-110 labelled peptide with KLHL3 (a.a. 298–587) from 0 to 3200 or 6400 nM; 25°C; test of the effect of chloride concentration; one site total fit. As to conditions: both partners purified.

[16] abbreviates: 10 nM Lumio-green labelled peptide (N-terminal linker CCPGCCGGGG), 30 µl, ex 485/em 538 nm, repeated at least twice.

As to “GST-KLHL3 Kelch domain (a.a. 298–587) (from UniProt Q9UH77 298-587) (domain or fragment)”, the Kd in test [1] is 670 nM; in [2], > 50 µM.
For ECEETEVDQHV [WNK3 [a.a.537-547] WT], the Kd in test [3] (setting [16]) was 0.67 µM.
With “WNK3: wild type WNK3-HA transfected in HEK293 cells”, the “WNK3 levels / KLHL3-mediated degradation (in words)” value in test [4] is “significantly lower than in the absence of KLHL3, even at the lowest amounts of KLHL3 DNA used for transfection”.
For “T541A: WNK3-HA mutant T541A transfected in HEK293 cells”, in test [4], the “WNK3 levels / KLHL3-mediated degradation (in words)” value is given as “reduced KLHL3-mediated degradation of WNK3”.
For “WNK3 T541E: WNK3-HA mutant T541E transfected in HEK293 cells”, in test [4], the “WNK3 levels / KLHL3-mediated degradation (in words)” value was “noticeably resistant to degradation”.
For `CC(C)[C@H](NC(=O)[C@H](Cc1c[nH]cn1)NC(=O)[C@H](CCC(N)=O)NC(=O)[C@H](CC(=O)O)NC(=O)[C@@H](NC(=O)[C@H](CCC(=O)O)NC(=O)[C@@H](NC(=O)[C@H](CCC(=O)O)NC(=O)[C@H](CCC(=O)O)NC(=O)[C@H](CS)NC(=O)[C@@H](N)CCC(=O)O)[C@@H](C)OP(=O)(O)O)C(C)C)C(=O)O` [WNK3 [a.a.537-547] pT541] (H-ECEE[pT]EVDQHV-OH; N-terminus and C-terminus assumed), the Kd in [3] (setting [16]) is > 50 µM. Besides, the “KLHL3 interaction (in words)” value in test [3] (fluorescence polarisation, GST-KLHL3 a.a. 298–587, 10 nM Lumio-green labelled peptide, pH 7.5) is on record as “too severely destabilised to measure a dissociation constant”.
As for ECEEEEVDQHV [WNK3 [a.a.537-547] E541], the Kd in test [3] (printed in Figure 2 picture, 10 nM Lumio-green labelled peptide) was > 50 µM.
As to {Lumio green}-CCPGCCGGGGECEEEEVDQHV (cysteine pairing not given here) [Lumio green-labelled WNK3 T541E peptide (ECEEEEVDQHV, WNK3 a.a. 537–547, Thr541 mutated to Glu)], in test [5], the Kd is > 50 µM.
{Rhodamine‑110}-ECEETEVDQHV [Rhodamine-110 labelled WNK3 degron peptide (ECEETEVDQHV)]: the Kd in test [6] came out at 1700 nM; in [7] it was 1100 nM; in [8], 1400 nM; in [9], 1500 nM; in test [10] it was 1300 nM; in test [11] it was 1300 nM. The figures for the Kd in test [12], in test [13] and in test [14] were 1200 nM, 1700 nM and 1300 nM, respectively.

B1: Rhodamine-110 labelled WNK4 degron peptide (EPEEPEADQHQ) (peptide)
peptide: {Rhodamine‑110}-EPEEPEADQHQ
notes: WNK4 acidic degron motif, residues 557–567; also called 11-residue degron from WNK4; source: synthetic peptide (Fmoc solid phase, purified by HPLC)
As for B1, the Kd in test [6] was 700 nM; in test [7] it was 300 nM; in test [8], 600 nM; in test [9], 600 nM; in test [10], 600 nM; in test [11], 700 nM. Also, the Kd in test [12], in test [13] and in test [14] was 600 nM in each case. The binding result in test [15] was “binds”.
